Results on 19 molecules are retold here after US20250154283A1 (published 2025).

The test addresses T1, biotinylated human VWF cysteine knot (CK) domain construct (human, biotin on the in vitro biotinylation tag (residue not stated); one N-glycan).
T1 construct: Disulfide-linked homodimer; also called biotinylated human VWF CK domain; human VWF CK domain construct
T1 chain: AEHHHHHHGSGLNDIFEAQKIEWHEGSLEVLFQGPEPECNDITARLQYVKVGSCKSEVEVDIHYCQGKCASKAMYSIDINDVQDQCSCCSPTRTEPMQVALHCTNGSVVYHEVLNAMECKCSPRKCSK
Briefly: SPR, scFv captured on anti-SV5, pH 7.4. Background: In SPR one partner is held on a chip, and binding of the other changes the refractive index at the surface.

B1: Lib4_P2_A1_scFv (scFv, not shown: small tags and cut ends)
scFv: QVQLQESGPGLVKPSQTLSLTCTVSGASFGDNYWSWIRQPPGKGLEWIGYIDTSGSSDYNPSLKSRVTMSVDTSKNQFSLKVNSVTAADTAVYYCARVSWGYYAMDVWGQGTTVTVSSSGGSTITSYNVYYTKLSSSGTEIVMTQSPATLSLSPGERATLSCRASQGISGRLAWYQQKPGQAPRLLIYDVSTRATGIPARFSGSGSGTDFTLTISSLEPEDFAVYYCQQYDTSAPLTFGGGTKVEIK
Regarding B1, the binding result was “binds”.

B2: 2738_Lib1_scFv (scFv, not shown: small tags and cut ends)
scFv: QVQLVQSGAEVKKPGASVKVSCKVSGYTLTDLPIHWVRQAPGKGLEWMGGINPFLGTTIYAQKFQGRVTMTEDTSTDTAYMELSSLKSEDTAVYYCARGVDMLATARDYYYMAIWGKGTTVTVSSSGGSTITSYNVYYTKLSSSGTDIQMTQSPSSVSASVGDRVTITCRASQSIGNDLAWYQQKPGKAPKLLIYGASMRATGVPSRFSGSGSGTDFTLTISSLQPEDFANYYCQQYASDPLTFGGGTKVEIK
B2: the binding result is given as “binds”.

B3: 256_Lib8_scFv (scFv, not shown: small tags and cut ends)
scFv: EVQLVESGGGLVQPGRSLRLSCAASGFTVSSNAMHWVRQAPGKGLEWVSAIGTFADTDYADSVEGRFTISRDNAKNSLYLQMNSLRAEDTAVYYCAREGAAAGTNFDYWGQGTLVTVSSSGGSTITSYNVYYTKLSSSGTDIQMTQSPSSLSASVGDRVTITCRASQGIRSYLAWYQQKPGKAPKLLIYGASTLEGGVPSRFSGSGSGTDFTLTISSLQPEDVATYYCQQSYSTPPKFGGGTKVEIK
For B3, the binding result is “binds”.

B4: Lib6_P3_B9_scFv (scFv, not shown: small tags and cut ends)
scFv: EVQLVQSGAEVKKPGASVKVSCKASGDTFSSHVISWVRQAPGQGLEWMGGINPRTGTTIYAQKLQGRGTMTTDPSTSTAYMELRSLRSDDTAVYYCARTRPWAGLDVWGQGTTVTVSSSGGSTITSYNVYYTKLSSSGTESALTQPASVSGSPGQSITISCTGTNIEYKGVSWYQQHPGKAPKLMIYGVDKRPSGVSNRFSGSKSGNTASLTISGLQAEDEADYYCQAWGTSTAIFGGGTKLTVL
On to B4, for which the binding result is reported as “binds”.

B5: 3964_Lib4_scFv (scFv, not shown: small tags and cut ends)
scFv: QVQLQESGPGLVKPSQTLSLTCTVSGASISTHSWSWIRQPPGKGLEWIGYINPSGDIDYNPSLKSRVTMSVDTSKNQFSLKVNSVTAADTAVYYCARGRTGFDSSGFVVGAFDIWGQGTMVTVSSSGGSTITSYNVYYTKLSSSGTEIVMTQSPATLSLSPGERATLSCRASQNVNDNLAWYQQKPGQAPRLLIYDASTRPTGIPARFSGSGSGTDFTLTISSLEPEDFAVYYCQQYLTIPRTFGGGTKVEIK
Consider B5, for which the binding result is given as “binds”.

B6: Lib1_P1_A1_scFv (scFv, not shown: small tags and cut ends)
scFv: QVQLVQSGAEVKKPGASVKVSCKVSGDTLSNYAIHWVRQAPGKGLEWMGGINPNAGTTIYAQKFQGRVTMTEDTSTDTAYMELSSLKSEDTAVYYCARDSSSWSQFGYYYYYMDVWGKGTTVTVSSSGGSTITSYNVYYTKLSSSGTDIQMTQSPSSVSASVGDRVTITCRASQSIGDFLAWYQQKPGKAPKLLIYDASHLQTGVPSRFSGSGSGTDFTLTISSLQPEDFANYYCQQTSTIPPTFGGGTKVEIK
As to B6, the binding result is on record as “binds”.

B7: Lib1_P1_A2_scFv (scFv, not shown: small tags and cut ends)
scFv: QVQLVQSGAEVKKPGASVKVSCKVSEGTLSRHYINWVRQAPGKGLEWMGGINAKSGATIYAQKFQGRVTMTEDTSTDTAYMELSSLKSEDTAVYYCAKDTGDDILTDYSDAFDIWGQGTMVTVSSSGGSTITSYNVYYTKLSSSGTDIQMTQSPSSVSASVGDRVTITCRASQNIGTSLAWYQQKPGKAPKLLIYGASNLESGVPSRFSGSGSGTDFTLTISSLQPEDFANYYCLQYNDWPPLYSFGGGTKVEIK
Take B7: the binding result was “binds”.

B8: 96_Lib4_scFv (scFv, not shown: small tags and cut ends)
scFv: QVQLQESGPGLVKPSQTLSLTCTVSGESFSTSYWSWIRQPPGKGLEWIGYITHSGYTDYNPSLKSRVTMSVDTSKNQFSLKVNSVTAADTAVYYCARGGRFPFWYFDLWGRGSLVTVSSSGGSTITSYNVYYTKLSSSGTEIVMTQSPATLSLSPGERATLSCRASRSIGSNLAWYQQKPGQAPRLLIYGATTRATGIPARFSGSGSGTDFTLTISSLEPEDFAVYYCQQYKNDATFGGGTKVEIK
Take B8: the binding result is “binds”.

B9: 4035_Lib1_scFv (scFv, not shown: small tags and cut ends)
scFv: QVQLVQSGAEVKKPGASVKVSCKVSGYAFPSYGIHWVRQAPGKGLEWMGGISAFTGDTIYAQKFQGRVTMTEDTSTDTAYMELSSLKSEDTAVYYCASGPTNVLTGLMESAEYFQHWGQGTLVTVSSSGGSTITSYNVYYTKLSSSGTDIQMTQSPSSVSASVGDRVTITCRASQGISRDLAWYQQKPGKAPKLLIYGASGRATGVPSRFSGSGSGTDFTLTISSLQPEDFANYYCQQSYITPTTFGGGTKVEIK
Consider B9, for which the binding result is “binds”.

B10: 189_Lib4_scFv (scFv, not shown: small tags and cut ends)
scFv: QVQLQESGPGLVKPSQTLSLTCTVSGVTFSSYGWSWIRQPPGKGLEWIGYVDTSGSTDYNPSLKSRVTMSVDTSKNQFSLKVNSVTAADTAVYYCARTTYYYDSSGFARGWFDPWGQGTLVTVSSSGGSTITSYNVYYTKLSSSGTEIVMTQSPATLSLSPGERATLSCRASQSVPSSHLAWYQQKPGQAPRLLIYDATNRAAGIPARFSGSGSGTDFTLTISSLEPEDFAVYYCQQYDNWPSPSFGGGTKVEIK
Turning to B10, the binding result is recorded as “binds”.

B11: Lib4_P2_A3_scFv (scFv, not shown: small tags and cut ends)
scFv: QVQLQESGPGLVKPSQTLSLTCTVSGVSLSTSDYSWSWIRQPPGKGLEWIGYISPPGRSDYNPSLKSRVTMSVDTSKNQFSLKVNSVTAADTAVYYCARHSSSGWYSTYDFDSWGQGTMVTVSSSGGSTITSYNVYYTKLSSSGTEIVMTQSPATLSLSPGERATLSCRASQNIHSNLAWYQQKPGQAPRLLIYGATTRATGIPARFSGSGSGTDFTLTISSLEPEDFAVYYCQQSYTTPLTFGGGTKVEIK
As for B11, the binding result is recorded as “binds”.

B12: 16_Lib8_scFv (scFv, not shown: small tags and cut ends)
scFv: EVQLVESGGGLVQPGRSLRLSCAASGFRFDEYDMHWVRQAPGKGLEWVSAISSESASIDYADSVEGRFTISRDNAKNSLYLQMNSLRAEDTAVYYCARDGAYGDYFDYWGQGTMVTVSSSGGSTITSYNVYYTKLSSSGTDIQMTQSPSSLSASVGDRVTITCRASQDIKSWLAWYQQKPGKAPKLLIYGASTLQSGVPSRFSGSGSGTDFTLTISSLQPEDVATYYCQQSYSAPYTFGGGTKVEIK
With B12, the binding result is “binds”.

B13: 2301_Lib4_scFv (scFv, not shown: small tags and cut ends)
scFv: QVQLQESGPGLVKPSQTLSLTCTVSGASISTSDHSWSWIRQPPGKGLEWIGYIRDTGSTDYNPSLKSRVTMSVDTSKNQFSLKVNSVTAADTAVYYCAISSTERWKQSFGVDTEYFQHWGQGTLVTVSSSGGSTITSYNVYYTKLSSSGTEIVMTQSPATLSLSPGERATLSCRASRYVSTNLAWYQQKPGQAPRLLIYDAVTRAPGIPARFSGSGSGTDFTLTISSLEPEDFAVYYCQQYHSLPLIFGGGTKVEIK
In the case of B13, the binding result is on record as “binds”.

B14: 3552_Lib8_scFv (scFv, not shown: small tags and cut ends)
scFv: EVQLVESGGGLVQPGRSLRLSCAASEFTFGDYDMHWVRQAPGKGLEWVSAISSSGSNRDYADSVEGRFTISRDNAKNSLYLQMNSLRAEDTAVYYCARDAWFGDAFDIWGQGTMVTVSSSGGSTITSYNVYYTKLSSSGTDIQMTQSPSSLSASVGDRVTITCRASESVSSWLAWYQQKPGKAPKLLIYGASTLEGGVPSRFSGSGSGTDFTLTISSLQPEDVATYYCQQSYSFPDFGGGTKVEIK
Take B14: the binding result is reported as “binds”.

B15: 11485_Lib1_scFv (scFv, not shown: small tags and cut ends)
scFv: QVQLVQSGAEVKKPGASVKVSCKVSGAPSAAIIHWVRQAPGKGLEWMGGFTQIFGTAIYAQKFQGRVTMTEDTSTDTAYMELSSLKSEDTAVYYCAREGIGGHDAFDIWGQGTMVTVSSSGGSTITSYNVYYTKLSSSGTDIQMTQSPSSVSASVGDRVTITCRASQDISKNLAWYQQKPGKAPKLLIYKASKLESGVPSRFSGSGSGTDFTLTISSLQPEDFANYYCLHDYTYPPTFGGGTKVEIK
With B15, the binding result is “binds”.

B16: 487_Lib1_scFv (scFv, not shown: small tags and cut ends)
scFv: QVQLVQSGAEVKKPGASVKVSCKVSGYTFTSHIIHWVRQAPGKGLEWMGGMNPYSNKAIYAQKFQGRVTMTEDTSTDTAYMELSSLKSEDTAVYYCARDASDYGDYGYYYYYMDVWGKGTTVTVSSSGGSTITSYNVYYTKLSSSGTDIQMTQSPSSVSASVGDRVTITCRASQSIGDFLAWYQQKPGKAPKLLIYDASHLQTGVPSRFSGSGSGTDFTLTISSLQPEDFANYYCQQTSTIPPTFGGGTKVEIK
B16: the binding result was “binds”.

B17: 4956_Lib1_scFv (scFv, not shown: small tags and cut ends)
scFv: QVQLVQSGAEVKKPGASVKVSCKVSGYTLTSNYIHWVRQAPGKGLEWMGGFNPSSGSTIYAQKFQGRVTMTEDTSTDTAYMELSSLKSEDTAVYYCARTLYDFWSGYLDAFDIWGQGTMVTVSSSGGSTITSYNVYYTKLSSSGTDIQMTQSPSSVSASVGDRVTITCRASQNIRSSLAWYQQKPGKAPKLLIYAASNLEPGVPSRFSGSGSGTDFTLTISSLQPEDFANYYCQQYEDTPLTFGGGTKVEIK
B17: the binding result is reported as “binds”.

B18: Lib1_P1_G3_scFv (scFv, not shown: small tags and cut ends)
scFv: QVQLVQSGAEVKKPGASVKVSCKVSGYTSRQYIHWVRQAPGKGLEWMGWVTPIFGTTNYAQKFQGRVTMTEDTSTDTAYMELSSLKSEDTAVYYCAREWTGTTAFDIWGQGTLVTVSSSGGSTITSYNVYYTKLSSSGTDIQMTQSPSSVSASVGDRVTITCRASQDIGHYLAWYQQKPGKAPKLLIYAASNRASGVPSRFSGSGSGTDFTLTISSLQPEDFANYYCQQGYSAPYGFGGGTKVEIK
Regarding B18, the binding result is given as “binds”.

B19: 399_Lib1_scFv (scFv, not shown: small tags and cut ends)
scFv: QVQLVQSGAEVKKPGASVKVSCKVSGITFTSDYIHWVRQAPGKGLEWMGGMNPYSNKAIYAQKFQGRVTMTEDTSTDTAYMELSSLKSEDTAVYYCATGGLRIAARTSYFDYWGQGTLVTVSSSGGSTITSYNVYYTKLSSSGTDIQMTQSPSSVSASVGDRVTITCRASMDIAGSLAWYQQKPGKAPKLLIYDTSFRATGVPSRFSGSGSGTDFTLTISSLQPEDFANYYCQQYDNPPRLTFGGGTKVEIK
For the molecule B19, the binding result is on record as “binds”.
